# Measured values from the supplement of paper PMC7877785.
# ± gives the uncertainty stated by the source.
# Experiment: self-splicing fitness, log relative to wild type (ln ratio); higher = more splicing; Tetrahymena group I intron in knt gene, E. coli kanamycin selection, DiMSum; sequences stand for … in CUCUCU…GGAGGGAAAAGUUAUCAGGCAUGCACCUGGUAGCUAGUCUUUAAACCAAUAGAUUGCAUCGGUUUAAAAGGCAAGACCGUCAAAUUGCGGGAAAGGGGUCAACAGCCGUUCAGUACCAAGUCUCAGGGGAAACUUUGAGAUGGCCUUGCAAAGGGUAUGGUAAUAAGCUGACGGACAUGGUCCUAACCACGCAGCCAAGUCCUAAGUCAACAGAUCUUCUGUUGAUAUGGAUGCAGUUCACAGACUAAAUGUCGGUCGGGGAAGAUGUAUUCUUCUCAUAAGAUAUAGUCGGACCUCUCCUUAAUGGGAGCUAGCGGAUGAAGUGAUGCAACACUGGAGCCGCUGGGAACUAAUUUGUAUGCGAAAGUAUAUUGAUUAGUUUUGGAGUACUCGUGGUCG
# In short: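 Fitness was computed with DiMSum as the error-weighted combination of replicate fold changes, kanamycin versus none, each normalised to wild type. The library randomised all eight intron nucleotides of the P1ex region, with the intron placed in the knt kanamycin-resistance gene on pET-22b(+) in E. coli BL21(DE3). Six replicate transformations were grown overnight at 37°C or 30°C on LB agar with or without 25 μg/mL kanamycin, plus 100 μg/mL carbenicillin, 50 μM IPTG and 0.2% rhamnose. Pooled colonies were amplicon-sequenced on an Illumina HiSeq 2500.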
Sequence,self-splicing fitness (ln) (30 °C),self-splicing fitness (ln) (37 °C)
UCAUAGCAAUAUUACGCUCA,-1.82 ± 0.15,-0.493 ± 0.15
UCAUAGCAAUAUUACGCUGU,-2.91 ± 0.17,-1.95 ± 0.24
UCAUAGCAAUAUUACGGACU,-2.63 ± 0.18,-3.18 ± 0.43
UCAUAGCAAUAUUACGGGAC,-2.96 ± 0.27,-3.97 ± 0.39
UCAUAGCAAUAUUACGGGGU,-4.08 ± 0.27,-1.67 ± 0.18
UCAUAGCAAUAUUACGGUAU,–,-2.43 ± 0.28
UCAUAGCAAUAUUACGUAAG,-1.66 ± 0.1,-1.91 ± 0.15
UCAUAGCAAUAUUACGUAGC,-4.12 ± 0.3,-0.156 ± 0.15
UCAUAGCAAUAUUACGUAGG,-1.08 ± 0.074,-1.56 ± 0.096
UCAUAGCAAUAUUACGUAUA,-2.54 ± 0.34,-2.13 ± 0.28
UCAUAGCAAUAUUACGUAUC,-4.44 ± 0.33,-3.23 ± 0.24
UCAUAGCAAUAUUACGUCCU,-3.7 ± 0.25,-1.18 ± 0.14
UCAUAGCAAUAUUACGUGCU,-2.6 ± 0.17,-1.99 ± 0.11
UCAUAGCAAUAUUACGUGGA,-2.02 ± 0.11,-1.24 ± 0.093
UCAUAGCAAUAUUACGUGUA,-2.35 ± 0.13,-1.84 ± 0.14
UCAUAGCAAUAUUACGUUGC,-3.86 ± 0.31,-2.31 ± 0.32
UCCAAGCAAUAUUACGACCC,-3.47 ± 0.22,-1.98 ± 0.17
UCCAAGCAAUAUUACGACGA,-0.735 ± 0.07,0.11 ± 0.096
UCCAAGCAAUAUUACGACGU,-0.266 ± 0.068,0.0245 ± 0.073
UCCAAGCAAUAUUACGAUCU,-3.08 ± 0.26,-2.56 ± 0.22
UCCAAGCAAUAUUACGAUGA,-0.0226 ± 0.05,0.466 ± 0.071
UCCAAGCAAUAUUACGAUUG,-4.13 ± 0.33,-1.78 ± 0.2
UCCAAGCAAUAUUACGCAAG,-3.86 ± 0.32,-2.51 ± 0.26
UCCAAGCAAUAUUACGCACU,-2.28 ± 0.15,-0.918 ± 0.14

Sequence,self-splicing fitness (ln) (30 °C),self-splicing fitness (ln) (37 °C)
UCCAAGCAAUAUUACGCAUA,-1.07 ± 0.096,-0.213 ± 0.087
UCCAAGCAAUAUUACGCCGA,-0.365 ± 0.14,0.242 ± 0.13
UCCAAGCAAUAUUACGCCGU,-0.285 ± 0.13,-0.0434 ± 0.19
UCCAAGCAAUAUUACGCGAA,-2.43 ± 0.13,-0.748 ± 0.12
UCCAAGCAAUAUUACGCGAC,-2.44 ± 0.23,–
UCCAAGCAAUAUUACGCUCA,-1.03 ± 0.11,-0.393 ± 0.13
UCCAAGCAAUAUUACGGAGG,-4.42 ± 0.27,-2.81 ± 0.29
UCCAAGCAAUAUUACGGCCA,-0.223 ± 0.11,0.127 ± 0.11
UCCAAGCAAUAUUACGGGCA,-0.884 ± 0.06,0.244 ± 0.074
UCCAAGCAAUAUUACGGGCC,-4.08 ± 0.32,-1.72 ± 0.25
UCCAAGCAAUAUUACGGUUA,-0.451 ± 0.066,0.0448 ± 0.068
UCCAAGCAAUAUUACGUAAA,-1.12 ± 0.089,-0.00199 ± 0.11
UCCAAGCAAUAUUACGUACG,-3.53 ± 0.19,-1.76 ± 0.16
UCCAAGCAAUAUUACGUAGC,-3.38 ± 0.14,-1.38 ± 0.11
UCCAAGCAAUAUUACGUCCA,-1.56 ± 0.11,-0.691 ± 0.11
UCCAAGCAAUAUUACGUCGU,-0.899 ± 0.073,-0.178 ± 0.085
UCCAAGCAAUAUUACGUCUG,-4 ± 0.23,-3.01 ± 0.2
UCCAAGCAAUAUUACGUGGC,-3.9 ± 0.27,-2.97 ± 0.33
UCCAAGCAAUAUUACGUGGU,-2.96 ± 0.1,-1.45 ± 0.092
UCCAAGCAAUAUUACGUUAC,-4.16 ± 0.26,-3.2 ± 0.32
UCCAAGCAAUAUUACGUUCA,-1.4 ± 0.13,-0.51 ± 0.11
UCCAAGCAAUAUUACGUUCU,-2.62 ± 0.1,-3.9 ± 0.29
UCCAAGCAAUAUUACGUUUC,-3.37 ± 0.2,-2.76 ± 0.26
UCCAAGCAAUAUUACGUUUU,-4 ± 0.13,-2.91 ± 0.14
